Assay results as given in patent US20130344567, “METHOD FOR IMMOBILISING NUCLEIC LIGANDS” (LFB Biotechnologies, published 2013).

How the values were obtained:
Conditions in all cases: tags: recombinant human FVII produced in transgenic rabbit milk (FVII-TG)
[1] = target: T1, Factor VII (FVII/FVIIa, active Gla domain) (Homo sapiens, UniProt P08709;P08709 P08709:61-212,P08709:213-466); assay: affinity chromatography; 95% of FVII retained and eluted with EDTA (coupling pH 4.2); loading capacity 5.4 mg FVII/ml gel at 5.8 mg/ml aptamer; 50 mM Tris, 10 mM CaCl2, pH 7.5
Procedure: (§1) The loading capacity (or in other words the retention capacity) of the affinity supports, expressed in mg of FVII per ml of gel, was evaluated by injection of a composition of recombinant human FVII in “Tp5” buffer (50 mM Tris, 10 mM CaCl₂, pH 7.5).
(§2) Table 3 below gives the loading capacity of the affinity supports as a function of the number of aptamers grafted at their surface.

[2] = target: T1, Factor VII (FVII/FVIIa, active Gla …); assay: affinity chromatography; loading capacity 8.0 mg FVII/ml gel at 5.6 mg/ml aptamer; FVIIam yield in eluate 76.8%; Tris, 10 mM CaCl2, EDTA elution
Procedure: as §1, §2

[3] = target: T1, Factor VII (FVII/FVIIa, active Gla …); assay: affinity chromatography; FVIIam yield in eluate 73.8%, 1.1% not retained; 50 mM Tris, 10 mM CaCl2, 4 mM MgCl2, pH 7.5; EDTA elution

B1: Mapt 2CS-PEG(C11) (oligo5) (ssDNA)
DNA: ATGCAGCCAGCCGCAGTGTAAGTGAATGCAGACATGGTCTAAGTG
modifications: 5' amine hydrophilic C11 spacer (11-amino-3,6,9-trioxaundecan-1-yl), grafted on NHS-activated Sepharose 4 FF
Question: Does B1 bind [1]?
Answer: binds

B2: Mapt 2.2CS-PEG(C11) (ssDNA)
DNA: CCGCACGCTACGCGCATGAACCCGCGCACACGACTTGAAGTAGC
modifications: 5' amine hydrophilic C11 spacer (11-amino-3,6,9-trioxaundecan-1-yl), grafted on NHS-activated Sepharose 4 FF
Question: Does B2 bind [2]?
Answer: binds

Question: Does CCGCACGCTACGCGCATGAACCCGCGCACACGACTTGAAGTAGC (ssDNA, 5' amine C6 spacer, grafted on NHS-activated Sepharose 4 FF) [Mapt 2.2CS C6] bind [3]?
Answer: binds
